Patent publication US20250306040A1 (UNIVERSITY OF KENTUCKY RESEARCH FOUNDATION, published 2025)
No end group written: not given here.

Experiments:
[1] = target: T1, Aβ40 synthetic peptide (AS-24235, Anaspec) (human, UniProt P05067 672-711); assay: amylin-Aβ sandwich ELISA on co-incubated peptides
T1 construct: domain: Aβ40; also called human Aβ40

[2] = target: T1, Aβ40 synthetic peptide (AS-24235, …); assay: amylin-Aβ sandwich ELISA on co-incubated peptides, human amylin against rat amylin
Protocol: The reaction was stopped by adding 50 μL of stop solution (N600, Thermo Scientific) after developing the signals, the plate was read at 450 nm in a spectrophotometer. Amylin-Aβ concentrations were calculated by generating a graph between relative optical density (O.D.) 450 of standards vs standard concentrations, after subtracting the optical density of standard blank and sample blank from the optical density of standards and samples respectively.
Amylin-Aβ aggregates were prepared using the procedure described by O'Nuallain et al. Briefly, 30 μM human amylin synthetic peptide (AS-60254-1, Anaspec) was incubated in PBSA (PBS+0.05% sodium azide) in a water bath at 37° C. for 5 hrs. Aβ₄₀ synthetic peptide (16.2 μM) (AS-24235, Anaspec) was preincubated at 37° C. for 2 hrs. […]
Specificity of amylin-Aβ sandwich ELISA was confirmed using a solution phase amylin-Aβ aggregation assay described in O'Nuallain et al. Synthetic human amylin and Aβ₄₀ peptides were incubated for promoting the amylin-Aβ aggregation and subjected to the amylin-Aβ sandwich ELISA. […] A robust amylin-Aβ immuno-reactivity signal was detected in co-aggregated amylin-Aβ solution, but not in the homogenous amylin and Aβ solutions (FIG. 2A). The aggregated amylin-Aβ solution was assayed for biochemical characteristics of amyloid by measuring the Thioflavin-T (Th-T) fluorescence signal intensity. […]

[3] = target: T1, Aβ40 synthetic peptide (AS-24235, …); assay: time course (0 to 24 hours) of sandwich ELISA signal of human amylin incubated with Aβ40, in parallel with Th-T fluorescence

T1 sequence (P05067 672-711 limits assumed): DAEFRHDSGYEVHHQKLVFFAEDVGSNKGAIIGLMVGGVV

| binding result [1] | fold amylin-Aβ ELISA signal intensity against rat amylin-Aβ co-aggregation [2] | fold increase of signal intensity from the baseline [3] | Binder |
| --- | --- | --- | --- |
| binds | – | – | KCNTATCATQRLANFLVRSSNNLGPVLPPTNVGSNTY (peptide, UniProt P12969 38-74, looked up, also called rodent amylin; non-amyloidogenic rat amylin) [rat amylin] |
| – | ~7 fold | 3 fold | KCNTATCATQRLANFLVHSSNNFGAILSSTNVGSNTY (ends and bridges not checked; cysteine pairing not given here, The same id is used for human amylin in human brain sections and in HIP rat pancreas; also called islet amyloid polypeptide; IAPP) [human amylin synthetic peptide (AS-60254-1, Anaspec)] |
